In patent US10946092 (BEIJING MABWORKS BIOTECH, dated 2021):
Substitutions are numbered along the chain they refer to. In names and notes the source's numbering stands. Like-named read-outs stand apart in the source and are kept apart here. Values belong to the binder of their own block, whether it stands above or below them.

How the values were obtained:
[1] = biological target: T1, human LAG3 expressed on HEK293A cells (human, UniProt P18627 23-525); assay: FACS on HEK293A cells expressing human LAG3
T1 construct: whole, on cells; also called HEK293A/human LAG3
T1 sequence (looked up): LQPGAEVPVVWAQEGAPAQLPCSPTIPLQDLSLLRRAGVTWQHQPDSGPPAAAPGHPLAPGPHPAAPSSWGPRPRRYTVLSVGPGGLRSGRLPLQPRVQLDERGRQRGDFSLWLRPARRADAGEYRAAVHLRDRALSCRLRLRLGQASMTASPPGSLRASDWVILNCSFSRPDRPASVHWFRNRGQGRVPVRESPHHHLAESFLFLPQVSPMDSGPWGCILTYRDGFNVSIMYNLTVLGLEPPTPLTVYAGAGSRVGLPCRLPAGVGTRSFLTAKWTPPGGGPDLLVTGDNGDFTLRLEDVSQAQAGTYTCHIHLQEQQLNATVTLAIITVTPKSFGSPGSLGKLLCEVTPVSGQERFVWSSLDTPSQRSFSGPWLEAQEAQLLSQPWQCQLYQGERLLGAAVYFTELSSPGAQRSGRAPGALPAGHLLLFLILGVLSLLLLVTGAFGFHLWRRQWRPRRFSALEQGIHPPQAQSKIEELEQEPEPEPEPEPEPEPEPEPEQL

[2] = biological target: T2, hLAG-3-hIg fusion protein (human LAG-3 extracellular domain fused to human Fc); Sino Biological, Cat #: … (human, UniProt P18627 23-450); assay: FACS blocking assay: hLAG-3-hIg preincubated with the antibody, then binding to MHC II on Daudi cells
T2 construct: extracellular domain; Bought protein; also called LAG3 fusion protein; human LAG3(ECD)-hFc; not shown: human Fc
T2 sequence (looked up): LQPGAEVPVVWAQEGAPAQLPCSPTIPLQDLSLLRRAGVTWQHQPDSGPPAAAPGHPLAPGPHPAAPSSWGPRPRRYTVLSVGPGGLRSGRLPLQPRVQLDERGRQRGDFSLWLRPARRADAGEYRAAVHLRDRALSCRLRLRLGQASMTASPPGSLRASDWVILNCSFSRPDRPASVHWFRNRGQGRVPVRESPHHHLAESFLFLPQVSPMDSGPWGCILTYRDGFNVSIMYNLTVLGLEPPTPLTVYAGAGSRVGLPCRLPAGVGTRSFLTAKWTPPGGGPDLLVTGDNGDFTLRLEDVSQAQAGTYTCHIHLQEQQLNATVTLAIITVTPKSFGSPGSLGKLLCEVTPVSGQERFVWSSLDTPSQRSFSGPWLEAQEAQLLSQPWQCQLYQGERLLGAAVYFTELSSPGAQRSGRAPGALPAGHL

[3] = biological target: T3, monkey LAG3(ECD)-mFc protein (ACRO, Cat #: LA3-052A0) (monkey); assay: SPR (BIAcore 8K), monkey LAG3(ECD)-mFc coupled to chip, antibody injected, 1:1 Langmuir
T3 construct: extracellular domain; Bought protein
Protocol: (§1) Serially diluted antibodies at concentrations ranging from 0.3 μM to 10 μM were injected into the SPR running buffer (HBS-EP buffer, pH7.4, GE Life Sciences; US; Cat #: BR-1006-69) at 30 μL/minute. The binding capacities were calculated with the RUs of blank controls subtracted. The association rate (Ka) and dissociation rate (Kd) were calculated using the one-to-one Langmuir binding model (BIA Evaluation Software, GE Life Sciences). The equilibrium dissociation constant K_D was calculated as the kd/ka ratio.

[4] = biological target: T4, recombinant human LAG3(ECD)-his (Sino Biological, Cat #: 16498-H08H) (human, UniProt P18627 23-450); assay: SPR (BIAcore 8K), human LAG3(ECD)-his coupled to chip, antibody injected, 1:1 Langmuir
T4 construct: extracellular domain; Bought protein; not shown: his tag
T4 sequence (looked up): T2 sequence (looked up)
Protocol: as §1

Human PBMC = biological target: T5, Human PBMC; assay: FACS on activated human PBMC
T5 chain: T1 sequence (looked up)
Protocol: (§2) Briefly, 10^5 HEK293A cells in 50 μl PBS buffers were seeded into each well of the 96-well plates and then added with 50 μl of serially diluted anti-LAG3 antibodies (5-fold dilution, starting from 40 μg/ml). After incubated at 4° C. for 1 hour, plates were washed 3 times with PBST. Then, an APC coupled Goat Anti-Mouse IgG (BioLegend, US, Cat #: 405308) diluted 500× was added to the plates. After incubation at 4° C. for 1 hour, the plates were washed with PBS for 3 times and then cell fluorescence was monitored using a FACS machine (BD).
(§3) Further, the binding activities of the two antibodies to actived human PBMCs were investigated by FACS. Briefly, human PBMCs were collected by density gradient centrifugation and then re-suspended in the complete medium (RPMI medium+10% FBS+ human IL-2 (20 IU/ml, R&D, Cat #: 202-IL)+ Dynabeads™ Human T-Activator CD3/CD28 (Gibco, Cat #: 11132D)) at 37° C. under 5% CO_2 in a humidified incubator for 2 days to get activated T cells. The cells were then collected and tested by FACS as described in Example 6.

[5] = biological target: T4, recombinant human LAG3(ECD)-his (Sino …); assay: SPR (BIAcore 8K), human LAG3(ECD)-his coupled to chip, antibody injected, 1:1 Langmuir; printed a second time as 'Ka values', read as Kd
Protocol: as §1

[6] = biological target: T4, recombinant human LAG3(ECD)-his (Sino …); assay: ELISA on coated human LAG3(ECD)-his
Protocol: The wells were blocked with 200 µl of blocking buffer (PBS containing 1% BSA, 1% goat serum, and 0.05% Tween 20) for 2 hours at room temperature, and then 100 µl of serially diluted anti-LAG3 antibodies (starting from 40 µg/ml) were added to each well and incubated for 1 hour at RT. Plates were washed for 3 times with PBST (PBS+0.05% Tween 20), added with Goat-anti-mouse IgG-HRP (Sigma, US, Cat #: A9309-1 ml) diluted 5000×, and incubated for 1 hour at RT. Plates were developed with freshly prepared Ultra-TMB (BD, US, Cat #:555214) for 5 minutes at RT. Absorbance was read on a SpectraMaxR i3X (Molecular Devies, US) at 450 nm.
as §3

[7] = biological target: T6, monkey (rhesus) LAG3 expressed on HEK293A cells (monkey (rhesus), UniProt A0A5F8A874 23-533); assay: FACS on HEK293A cells expressing rhesus LAG3
T6 construct: whole, on cells; also called HEK293A/rh LAG3
T6 sequence: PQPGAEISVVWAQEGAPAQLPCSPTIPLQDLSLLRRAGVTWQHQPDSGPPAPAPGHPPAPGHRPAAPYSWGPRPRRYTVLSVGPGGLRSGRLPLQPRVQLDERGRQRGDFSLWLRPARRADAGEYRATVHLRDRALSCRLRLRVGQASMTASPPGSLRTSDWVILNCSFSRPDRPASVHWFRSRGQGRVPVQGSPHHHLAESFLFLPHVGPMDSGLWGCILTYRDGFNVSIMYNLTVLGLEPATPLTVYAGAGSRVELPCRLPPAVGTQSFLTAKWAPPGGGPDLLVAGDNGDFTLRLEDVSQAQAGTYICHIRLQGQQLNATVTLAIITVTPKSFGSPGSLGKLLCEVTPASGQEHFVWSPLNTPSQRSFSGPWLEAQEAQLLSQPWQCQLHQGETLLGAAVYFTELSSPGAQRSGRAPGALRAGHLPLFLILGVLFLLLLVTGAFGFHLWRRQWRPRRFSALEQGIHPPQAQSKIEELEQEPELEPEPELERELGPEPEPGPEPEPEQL
Protocol: as §2, §3

[8] = biological target: T1, human LAG3 expressed on HEK293A cells; assay: FACS on HEK293A cells expressing human LAG3; remark: listed apart in the source
[9] = biological target: T2, hLAG-3-hIg fusion protein (human LAG-3 …); assay: FACS blocking assay: hLAG-3-hIg preincubated with the antibody, then binding to MHC II on Daudi cells; remark: listed apart in the source

binding result [1]: binds
binding result [2]: binds
B1: humanized antibody 134G10H2L2 (antibody, human IgG4 S228P, kappa, V domains shown)
VH: EVQLVESGGGLVKPGGSLRLSCAASGFTFSSFGMSWVRQAPGKRLEWVSIISSGGTYTFYPDILKGRFTISRDNAKNSLYLQMNSLRAEDTAVYYCARVYSDYDGRFDYWGQGTLVTVSS
VL: DIVMTQSPSSLAVSLGERATINCKSSQSLLNSGNQKNYLAWYQQKPGQPPKLLIYGASTRESGVPDRFSGSGSGTDFTLTISSLQAEDVAVYYCQNDHSYPLTFGAGTKLEIKR
notes: Human IgG4 (S228P)/kappa

binding result [1]: binds
binding result [2]: binds
B2: humanized antibody 134G10H3L2 (antibody, human IgG4 S228P, kappa, V domains shown)
VH: B1 VH with S49G
VL: B1 VL
notes: Human IgG4 (S228P)/kappa; also called 134G10H3VL2

Kd [3]: 0.201 pM
Kd [4]: 262 pM
kon [4]: 166000 M⁻¹ s⁻¹
B3: humanized antibody 134G10H2L3 (antibody, human IgG4 S228P, kappa, V domains shown)
VH: B1 VH
VL: B1 VL with S69T
notes: Human IgG4 (S228P)/kappa

binding result [1]: binds
binding result [2]: binds
B4: humanized antibody 134G10H0L0 (antibody, human IgG4 S228P, kappa, V domains shown)
VH: B1 VH with R44G
VL: B1 VL with S9D, A106Q
notes: Human IgG4 (S228P)/kappa

binding result [1]: binds
binding result [2]: binds
B5: humanized antibody 134G10H3L3 (antibody, human IgG4 S228P, kappa, V domains shown)
VH: B1 VH with S49G
VL: B1 VL with S69T
notes: Human IgG4 (S228P)/kappa

EC50 (read off the curve) (Human PBMC): ~0.1 µg/mL
koff [5]: 0.398 s⁻¹
Kd [3]: 488 pM
Kd [4]: 414000 pM
kon [4]: 960000 M⁻¹ s⁻¹
B6: humanized antibody 101F4H2L2 (antibody, human IgG4 S228P, kappa, V domains shown)
VH: QVQLVQSGAEVKKPGASVKVSCKVSGYTFTDYEMHWVRQAPGKGLEWMGAIDPETGGIVYNQRFKGRVTLTADTSTDTAYMELSSLRSEDTAVYYCATAGWGYWGQGTTVTVSS
VL: DIQMTQSPSSLSASVGDRVTITCKASQDINSYLSWYQQKPGKAPKLLIYRANRLLDGVPSRFSGSGSGQDYTLTISSLQPEDFATYYCLQYDEFPFTFGQGTKLEIKR
notes: Human IgG4 (S228P)/kappa

EC50 (read off the curve) [6]: ~1 µg/mL
EC50 (read off the curve) (Human PBMC): ~0.02 µg/mL
koff [5]: 0.000214 s⁻¹
Kd [3]: 980 pM
EC50 (read off the curve) [7]: ~0.8 µg/mL
Kd [4]: 2050 pM
kon [4]: 104000 M⁻¹ s⁻¹
B7: humanized (with affinity maturation) antibody 101F4H2L2-8 (antibody, human IgG4 S228P, kappa, V domains shown)
VH: B6 VH with A99T, G102N, Y103D
VL: B6 VL with L89Q

binding result [8]: binds
binding result [9]: binds
B8: humanized antibody 101F4H3L2 (antibody, human IgG4 S228P, kappa, V domains shown)
VH: B6 VH with V24A, V68A, T98G
VL: B6 VL
notes: Human IgG4 (S228P)/kappa

binding result [8]: binds
binding result [9]: binds
B9: humanized antibody 101F4H2L3 (antibody, human IgG4 S228P, kappa, V domains shown)
VH: B6 VH
VL: B6 VL with M4I, Y36F
notes: Human IgG4 (S228P)/kappa

binding result [8]: binds
binding result [9]: binds
B10: humanized antibody 101F4H0L0 (antibody, human IgG4 S228P, kappa, V domains shown)
VH: B6 VH with L70M, A72E
VL: B6 VL with Q69T, Y71F
notes: Human IgG4 (S228P)/kappa

binding result [8]: binds
binding result [9]: binds
B11: humanized antibody 101F4H3L3 (antibody, human IgG4 S228P, kappa, V domains shown)
VH: B6 VH with V24A, V68A, T98G
VL: B6 VL with M4I, Y36F
notes: Human IgG4 (S228P)/kappa
